Legend:
[1] = target: UPP-G224L, recombinant (Arabidopsis thaliana); assay: SEC
[2] = target: Arabidopsis uracil phosphoribosyltransferase (UPP), wild type, recombinant (Arabidopsis thaliana); assay: SEC

Row | Substance | stoichiometry N [1] | stoichiometry N [2]
1 | UPP-G224L, recombinant (enzyme) | 2 | 
2 | Arabidopsis uracil phosphoribosyltransferase (UPP), wild type, recombinant (enzyme) |  | 4

— paper doi:10.1101/2023.08.28.555145
